Columns and labels:
[1] = test system: immortalized murine embryonic fibroblasts (Mef); assay: Pooled negative selection RNAi screening (deep sequencing); type: cell-based; conditions: deep sequencing reads, on dox compared to initial representation
Outline: (§1)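 A pool of 1230 tet-regulated shRNAs (TRMPV-type) was retrovirally transduced at mostly single copy and ~1000-fold representation into tet-on MLL/AF9+Nras AML cells or immortalized murine embryonic fibroblasts, then cultured on or off doxycycline. shRNA-expressing cells were FACS-sorted, and shRNA representation was quantified by PCR and deep sequencing of genomic DNA, with depletion on dox compared against t0 and off dox.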

[2] = test system: tet-on competent MLL/AF9+Nras AML; assay: as above; type: cell-based, mouse; conditions: deep sequencing reads, On Dox compared to T0
Outline: as §1

Row | Molecule | Fold depletion in Mef [1] [Fold] | Fold depletion in AML [2]
1 | AU018778.350: shRNA, SEQ ID NO: 94 (nucleic acid) TGCTGTTGACAGTGAGCGCCTGAAGATTGCCTGTACCTAATAGTGAAGCCACAGATGTATTAGGTACAGGCAATCTTCAGATGCCTACTGCCTCGGA | 1.18 | 8.45 Fold
2 | Ptpn18.247: shRNA, SEQ ID NO: 170 (nucleic acid) TGCTGTTGACAGTGAGCGCCACGAACAAGAACCGCTACAATAGTGAAGCCACAGATGTATTGTAGCGGTTCTTGTTCGTGTTGCCTACTGCCTCGGA | 0.21 | 8.13 Fold
3 | Ogg1.395: shRNA, SEQ ID NO: 157 (nucleic acid) TGCTGTTGACAGTGAGCGACAGATCAAGTATGGACACTGATAGTGAAGCCACAGATGTATCAGTGTCCATACTTGATCTGCTGCCTACTGCCTCGGA | 1.44 | 8.69 Fold
4 | Gart.2713: shRNA, SEQ ID NO: 127 (nucleic acid) TGCTGTTGACAGTGAGCGAACCAGGGTAATTAATCACAAATAGTGAAGCCACAGATGTATTTGTGATTAATTACCCTGGTGTGCCTACTGCCTCGGA | 2.22 | 8.73 Fold
5 | Fpr1.375: shRNA, SEQ ID NO: 124 (nucleic acid) TGCTGTTGACAGTGAGCGATTGGTTCATGTGCAAATTCATTAGTGAAGCCACAGATGTAATGAATTTGCACATGAACCAACTGCCTACTGCCTCGGA | 3.07 | 9.66 Fold
6 | Mgst1.549: shRNA, SEQ ID NO: 142 (nucleic acid) TGCTGTTGACAGTGAGCGCAAGGAGCAGACTGTACTTGTATAGTGAAGCCACAGATGTATACAAGTACAGTCTGCTCCTTATGCCTACTGCCTCGGA | 1.09 | 9.14 Fold
7 | Ccr1.733: shRNA, SEQ ID NO: 101 (nucleic acid) TGCTGTTGACAGTGAGCGCCTGGATTGACTACAAGTTGAATAGTGAAGCCACAGATGTATTCAACTTGTAGTCAATCCAGATGCCTACTGCCTCGGA | 1.18 | 472.15 Fold
8 | Hexa.1510: shRNA, SEQ ID NO: 131 (nucleic acid) TGCTGTTGACAGTGAGCGAGAGCAGTAACCTGACAACTAATAGTGAAGCCACAGATGTATTAGTTGTCAGGTTACTGCTCCTGCCTACTGCCTCGGA | 2.13 | 1,777.36 Fold
9 | Dnajc10.2057: shRNA, SEQ ID NO: 113 (nucleic acid) TGCTGTTGACAGTGAGCGCTCCAACGACAGTGGTATTCAATAGTGAAGCCACAGATGTATTGAATACCACTGTCGTTGGATTGCCTACTGCCTCGGA | 1.47 | 8.99 Fold
10 | Tex14.3976: shRNA, SEQ ID NO: 185 (nucleic acid) TGCTGTTGACAGTGAGCGCCAGGAGCTACTTGATGAAATTTAGTGAAGCCACAGATGTAAATTTCATCAAGTAGCTCCTGATGCCTACTGCCTCGGA | 1.90 | 9.60 Fold
11 | Centa1.940: shRNA, SEQ ID NO: 106 (nucleic acid) TGCTGTTGACAGTGAGCGCCCGAAGGCTCATGTACTTCAATAGTGAAGCCACAGATGTATTGAAGTACATGAGCCTTCGGTTGCCTACTGCCTCGGA | 1.13 | 8.24 Fold
12 | Acpp.818: shRNA, SEQ ID NO: 87 (nucleic acid) TGCTGTTGACAGTGAGCGAAAAGAGAAATCTCGACTCCAATAGTGAAGCCACAGATGTATTGGAGTCGAGATTTCTCTTTCTGCCTACTGCCTCGGA | 0.85 | 9.00 Fold
13 | Smpd2.592: shRNA, SEQ ID NO: 183 (nucleic acid) TGCTGTTGACAGTGAGCGACAGCATGTCTACAGTCTGAATTAGTGAAGCCACAGATGTAATTCAGACTGTAGACATGCTGGTGCCTACTGCCTCGGA | 2.89 | 8.63 Fold
14 | Rock2.3898: shRNA, SEQ ID NO: 174 (nucleic acid) TGCTGTTGACAGTGAGCGCCAGATTCTATATGCCAATGAATAGTGAAGCCACAGATGTATTCATTGGCATATAGAATCTGATGCCTACTGCCTCGGA | 1.04 | 8.10 Fold
15 | Pkm2.2154: shRNA, SEQ ID NO: 166 (nucleic acid) TGCTGTTGACAGTGAGCGCGCCCACCTGAATGTCAATAAATAGTGAAGCCACAGATGTATTTATTGACATTCAGGTGGGCATGCCTACTGCCTCGGA | 1.92 | 9.63 Fold
16 | Klf5.581: shRNA, SEQ ID NO: 135 (nucleic acid) TGCTGTTGACAGTGAGCGCTCCGATAATTTCAGAGCATAATAGTGAAGCCACAGATGTATTATGCTCTGAAATTATCGGAATGCCTACTGCCTCGGA | 1.01 | 9.37 Fold
17 | Fas.1344: shRNA, SEQ ID NO: 118 (nucleic acid) TGCTGTTGACAGTGAGCGCGAGGAGAATTATAAACTGAAATAGTGAAGCCACAGATGTATTTCAGTTTATAATTCTCCTCATGCCTACTGCCTCGGA | 1.36 | 8.57 Fold
18 | Nrg4.1358: shRNA, SEQ ID NO: 153 (nucleic acid) TGCTGTTGACAGTGAGCGCCAGACATGTTGAAGTGAATAATAGTGAAGCCACAGATGTATTATTCACTTCAACATGTCTGTTGCCTACTGCCTCGGA | 0.54 | 8.11 Fold
19 | Nrp1.479: shRNA, SEQ ID NO: 155 (nucleic acid) TGCTGTTGACAGTGAGCGCACCCTCATTCTTACCATCCAATAGTGAAGCCACAGATGTATTGGATGGTAAGAATGAGGGTATGCCTACTGCCTCGGA | 0.83 | 8.19 Fold
20 | Slc11a1.307: shRNA, SEQ ID NO: 178 (nucleic acid) TGCTGTTGACAGTGAGCGCAACATTGAGTCCGACCTTCAATAGTGAAGCCACAGATGTATTGAAGGTCGGACTCAATGTTTTGCCTACTGCCTCGGA | 0.41 | 9.52 Fold
21 | Ntrk3.167: shRNA, SEQ ID NO: 156 (nucleic acid) TGCTGTTGACAGTGAGCGCCTGCAGCAAGACTGAGATCAATAGTGAAGCCACAGATGTATTGATCTCAGTCTTGCTGCAGATGCCTACTGCCTCGGA | 1.76 | 8.88 Fold
